Laboratory results from US20050084491A1.

Molecular target: surface integrins on A375.S2 cells (human melanoma cells)
Experiment: flow cytometry on A375.S2 cells, CNTO95 10 ug/ml, no peptide (cells only: 3.36)

Mean Channel Fluorescence: 89.7
Substance: CNTO95 (antibody)
